From US20230304075, “NUCLEIC ACID-BASED BIOSENSOR AND ASSOCIATED METHODS” (FACible BioDiagnostics LLC, published 2023)

B1: Rho94 (DAF2-30e-17) (ssRNA)
RNA: GGUAGCCCUGCCCGGUGUACCUGAGCCUAGCUCAACGACUCGCUUCGGCGAUGAUGGAGAGGCGCAAGGUUAACCGCCUCAGUCGAAUGGGUACACCUGGCAGUCCGGACAUGCAU
B2: Rho91 (DAF1-4560c-17) (ssRNA)
RNA: GGCGAUGCUAGGCUACGACUAGGCCUGAGAAUACUAGUCAAAGACGAUCGCUCGCUUCGGCGAUGAUGGAGAGGCGCAAGGUUAACCGCCUCAGCGUUCAAGCAAAAGAACCCUGUUUGGCUCACCGGGUCCUGCGCAU

Legend:
[1] = biological target: SARS-CoV-2 spike S2 protein (SARS-CoV-2, UniProt P0DTC2 P0DTC2:686-1213)
[2] = biological target: SARS-CoV-2 spike S1 protein (SARS-CoV-2, UniProt P0DTC2 P0DTC2:14-685)

Binder	binding result [1]	binding result [2]
B1	binds	no binding
B2	binds	no binding
